The source of these data is patent US20250145711A1 (Janssen / Centocor, published 2025).

In experiment [1] the target is T1, TRCW5 antigen (CD3δε-Fc-Avi) (biotinylated (site not stated)).
T1 construct: also called recombinant CD3
As to the kind of experiment: ELISA. On the technique in general: In an ELISA, binding on a coated surface is turned into a signal by an enzyme label.

Experiment [2] has as its target T1, TRCW5 antigen (CD3δε-Fc-Avi). Briefly: binding after heat.

T1 sequence (chain, as listed by the source mutant limits assumed): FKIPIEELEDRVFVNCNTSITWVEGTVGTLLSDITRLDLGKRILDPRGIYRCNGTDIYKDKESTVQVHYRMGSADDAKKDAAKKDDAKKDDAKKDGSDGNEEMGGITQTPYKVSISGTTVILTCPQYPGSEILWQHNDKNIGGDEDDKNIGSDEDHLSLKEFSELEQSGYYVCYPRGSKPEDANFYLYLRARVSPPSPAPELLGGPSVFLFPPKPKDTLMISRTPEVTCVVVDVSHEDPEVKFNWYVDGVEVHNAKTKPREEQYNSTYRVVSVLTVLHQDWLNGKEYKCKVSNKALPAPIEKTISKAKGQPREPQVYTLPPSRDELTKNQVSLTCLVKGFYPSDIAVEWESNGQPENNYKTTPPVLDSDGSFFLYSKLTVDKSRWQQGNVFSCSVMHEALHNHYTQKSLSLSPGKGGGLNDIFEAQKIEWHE

B1: CD3B2030 N106G (scFv)
scFv: QVQLVQSGAEVKKPGSSVKVSCKASGYTFTRSTMHWVKQAPGQGLEWIGYINPSSAYTNYNQKFQGRVTLTADKSTSTAYMELSSLRSEDTAVYYCASPQVHYDYGGFPYWGQGTLVTVSSGGSEGKSSGSGSESKSTGGSEIVLTQSPATLSASPGERVTLSCSASSSVSYMNWYQQKPGQAPRRWIYDSSKLASGVPARFSGSGSGRDYTLTISSLEPEDFAVYYCQQWSRNPPTFGGGTKVEIK
On to B1, for which the 50% effective concentration (EC50) (commonly the midpoint of the concentration-response curve) in experiment [1] came out at 14.3 nM. In experiment [2], the “% Retained 55° C.” value was determined as 115%, the “% Retained 60° C.” value stood at 59.8% and the “% Retained 65° C.” value came to 1.7%.

B2: CD3B2051 N106P (scFv)
scFv: QVQLVQSGAEVKKPGSSVKVSCKASGYTFTRSTMHWVKQAPGQGLEWMGYINPSSAYTNYNQKFQGRVTLTADKSTSTAYMELSSLRSEDTAVYYCASPQVHYDYPGFPYWGQGTLVTVSSGGSEGKSSGSGSESKSTGGSEIVLTQSPATLSASPGERVTLSCSASSSVSYMNWYQQKPGQAPRRLIYDSSKLASGVPARFSGSGSGRDYTLTISSLEPEDFAVYYCQQWSRNPPTFGGGTKVEIK
B2: in experiment [1], the EC50 was found to be 10.9 nM. For the same molecule, in experiment [2], the “% Retained 55° C.” value is 87.7%, the “% Retained 60° C.” value worked out at 32.6% and the “% Retained 65° C.” value was 0.2%.

B3: CD3B2030 N106S (scFv)
scFv: QVQLVQSGAEVKKPGSSVKVSCKASGYTFTRSTMHWVKQAPGQGLEWIGYINPSSAYTNYNQKFQGRVTLTADKSTSTAYMELSSLRSEDTAVYYCASPQVHYDYSGFPYWGQGTLVTVSSGGSEGKSSGSGSESKSTGGSEIVLTQSPATLSASPGERVTLSCSASSSVSYMNWYQQKPGQAPRRWIYDSSKLASGVPARFSGSGSGRDYTLTISSLEPEDFAVYYCQQWSRNPPTFGGGTKVEIK
Take B3: in experiment [1], the response was half-maximal at 19.1 nM (EC50). Besides, in experiment [2], the “% Retained 55° C.” value worked out at 64.6%, the “% Retained 60° C.” value amounted to 19% and the “% Retained 65° C.” value was 0.6%.

B4: CD3B2051 N106E (scFv)
scFv: QVQLVQSGAEVKKPGSSVKVSCKASGYTFTRSTMHWVKQAPGQGLEWMGYINPSSAYTNYNQKFQGRVTLTADKSTSTAYMELSSLRSEDTAVYYCASPQVHYDYEGFPYWGQGTLVTVSSGGSEGKSSGSGSESKSTGGSEIVLTQSPATLSASPGERVTLSCSASSSVSYMNWYQQKPGQAPRRLIYDSSKLASGVPARFSGSGSGRDYTLTISSLEPEDFAVYYCQQWSRNPPTFGGGTKVEIK
In turn, B4 yielded a concentration for a half-maximal effect (EC50) in experiment [1] of 8.05 nM. In experiment [2], the “% Retained 55° C.” value turned out to be 78.4%, the “% Retained 60° C.” value was 15.4% and the “% Retained 65° C.” value was found to be 0.5%.

B5: CD3B2051 N106R (scFv)
scFv: QVQLVQSGAEVKKPGSSVKVSCKASGYTFTRSTMHWVKQAPGQGLEWMGYINPSSAYTNYNQKFQGRVTLTADKSTSTAYMELSSLRSEDTAVYYCASPQVHYDYRGFPYWGQGTLVTVSSGGSEGKSSGSGSESKSTGGSEIVLTQSPATLSASPGERVTLSCSASSSVSYMNWYQQKPGQAPRRLIYDSSKLASGVPARFSGSGSGRDYTLTISSLEPEDFAVYYCQQWSRNPPTFGGGTKVEIK
Molecule B5 displayed a 50% effective concentration (EC50) in experiment [1] of 11.2 nM. Moreover, in experiment [2], the “% Retained 55° C.” value was 101%, the “% Retained 60° C.” value was 74.5% and the “% Retained 65° C.” value amounted to 8.4%.

B6: CD3B2030 N106H (scFv)
scFv: QVQLVQSGAEVKKPGSSVKVSCKASGYTFTRSTMHWVKQAPGQGLEWIGYINPSSAYTNYNQKFQGRVTLTADKSTSTAYMELSSLRSEDTAVYYCASPQVHYDYHGFPYWGQGTLVTVSSGGSEGKSSGSGSESKSTGGSEIVLTQSPATLSASPGERVTLSCSASSSVSYMNWYQQKPGQAPRRWIYDSSKLASGVPARFSGSGSGRDYTLTISSLEPEDFAVYYCQQWSRNPPTFGGGTKVEIK
B6 showed an EC50 in experiment [1] of 10.6 nM. For the same molecule, in experiment [2], the “% Retained 55° C.” value was 104%, the “% Retained 60° C.” value was determined as 98.9% and the “% Retained 65° C.” value was 55.7%.

B7: CD3B2030 N106R (scFv)
scFv: QVQLVQSGAEVKKPGSSVKVSCKASGYTFTRSTMHWVKQAPGQGLEWIGYINPSSAYTNYNQKFQGRVTLTADKSTSTAYMELSSLRSEDTAVYYCASPQVHYDYRGFPYWGQGTLVTVSSGGSEGKSSGSGSESKSTGGSEIVLTQSPATLSASPGERVTLSCSASSSVSYMNWYQQKPGQAPRRWIYDSSKLASGVPARFSGSGSGRDYTLTISSLEPEDFAVYYCQQWSRNPPTFGGGTKVEIK
Regarding B7, the EC50 in experiment [1] stood at 10.6 nM. Further, in experiment [2], the “% Retained 55° C.” value amounted to 107%, the “% Retained 60° C.” value is 104% and the “% Retained 65° C.” value turned out to be 53.8%.

B8: CD3B2051 N106V (scFv)
scFv: QVQLVQSGAEVKKPGSSVKVSCKASGYTFTRSTMHWVKQAPGQGLEWMGYINPSSAYTNYNQKFQGRVTLTADKSTSTAYMELSSLRSEDTAVYYCASPQVHYDYVGFPYWGQGTLVTVSSGGSEGKSSGSGSESKSTGGSEIVLTQSPATLSASPGERVTLSCSASSSVSYMNWYQQKPGQAPRRLIYDSSKLASGVPARFSGSGSGRDYTLTISSLEPEDFAVYYCQQWSRNPPTFGGGTKVEIK
Regarding B8, in experiment [1], the response was half-maximal at 15.2 nM (EC50). Moreover, in experiment [2], the “% Retained 55° C.” value came to 54.9%, the “% Retained 60° C.” value came to 1.4% and the “% Retained 65° C.” value stood at 0.7%.

B9: CD3B2030 N106K (scFv)
scFv: QVQLVQSGAEVKKPGSSVKVSCKASGYTFTRSTMHWVKQAPGQGLEWIGYINPSSAYTNYNQKFQGRVTLTADKSTSTAYMELSSLRSEDTAVYYCASPQVHYDYKGFPYWGQGTLVTVSSGGSEGKSSGSGSESKSTGGSEIVLTQSPATLSASPGERVTLSCSASSSVSYMNWYQQKPGQAPRRWIYDSSKLASGVPARFSGSGSGRDYTLTISSLEPEDFAVYYCQQWSRNPPTFGGGTKVEIK
Molecule B9 yielded a concentration for a half-maximal effect (EC50) in experiment [1] of 11.7 nM. For the same molecule, in experiment [2], the “% Retained 55° C.” value turned out to be 99.7%, the “% Retained 60° C.” value worked out at 87.2% and the “% Retained 65° C.” value came to 7.3%.

B10: CD3B2089 N106E (scFv)
scFv: QVQLVQSGAEVKKPGSSVKVSCKASGYTFTRSTMHWVRQAPGQGLEWMGYINPSSAYTNYAQKFQGRVTLTADKSTSTAYMELSSLRSEDTAVYYCASPQVHYDYEGFPYWGQGTLVTVSSGGSEGKSSGSGSESKSTGGSEIVLTQSPATLSASPGERVTLSCSASSSVSYMNWYQQKPGQAPRRWIYDSSKLASGVPARFSGSGSGRDYTLTISSLEPEDFAVYYCQQWSRNPPTFGGGTKVEIK
Regarding B10, the response in experiment [1] was half-maximal at 10.3 nM (EC50). In experiment [2], the “% Retained 55° C.” value worked out at 113%, the “% Retained 60° C.” value is 108% and the “% Retained 65° C.” value was found to be 33.2%.

B11: CD3B2051 N106G (scFv)
scFv: QVQLVQSGAEVKKPGSSVKVSCKASGYTFTRSTMHWVKQAPGQGLEWMGYINPSSAYTNYNQKFQGRVTLTADKSTSTAYMELSSLRSEDTAVYYCASPQVHYDYGGFPYWGQGTLVTVSSGGSEGKSSGSGSESKSTGGSEIVLTQSPATLSASPGERVTLSCSASSSVSYMNWYQQKPGQAPRRLIYDSSKLASGVPARFSGSGSGRDYTLTISSLEPEDFAVYYCQQWSRNPPTFGGGTKVEIK
The molecule B11 came in with a half-maximal effective concentration (EC50) in experiment [1] of 13.8 nM. Further, in experiment [2], the “% Retained 55° C.” value stood at 98.9%, the “% Retained 60° C.” value was found to be 33.1% and the “% Retained 65° C.” value worked out at 1.5%.

B12: CD3B2030 N106L (scFv)
scFv: QVQLVQSGAEVKKPGSSVKVSCKASGYTFTRSTMHWVKQAPGQGLEWIGYINPSSAYTNYNQKFQGRVTLTADKSTSTAYMELSSLRSEDTAVYYCASPQVHYDYLGFPYWGQGTLVTVSSGGSEGKSSGSGSESKSTGGSEIVLTQSPATLSASPGERVTLSCSASSSVSYMNWYQQKPGQAPRRWIYDSSKLASGVPARFSGSGSGRDYTLTISSLEPEDFAVYYCQQWSRNPPTFGGGTKVEIK
Molecule B12 yielded a concentration giving a half-maximal response (EC50) in experiment [1] of 11.4 nM. In addition, in experiment [2], the “% Retained 55° C.” value was 107%, the “% Retained 60° C.” value is 100% and the “% Retained 65° C.” value stood at 25.6%.

B13: CD3B2051 N106K (scFv)
scFv: QVQLVQSGAEVKKPGSSVKVSCKASGYTFTRSTMHWVKQAPGQGLEWMGYINPSSAYTNYNQKFQGRVTLTADKSTSTAYMELSSLRSEDTAVYYCASPQVHYDYKGFPYWGQGTLVTVSSGGSEGKSSGSGSESKSTGGSEIVLTQSPATLSASPGERVTLSCSASSSVSYMNWYQQKPGQAPRRLIYDSSKLASGVPARFSGSGSGRDYTLTISSLEPEDFAVYYCQQWSRNPPTFGGGTKVEIK
In turn, B13 had a 50% effective concentration (EC50) in experiment [1] of 11.4 nM. In addition, in experiment [2], the “% Retained 55° C.” value came to 116%, the “% Retained 60° C.” value was found to be 91.3% and the “% Retained 65° C.” value was found to be 4%.

B14: CD3B2051 N106A (scFv)
scFv: QVQLVQSGAEVKKPGSSVKVSCKASGYTFTRSTMHWVKQAPGQGLEWMGYINPSSAYTNYNQKFQGRVTLTADKSTSTAYMELSSLRSEDTAVYYCASPQVHYDYAGFPYWGQGTLVTVSSGGSEGKSSGSGSESKSTGGSEIVLTQSPATLSASPGERVTLSCSASSSVSYMNWYQQKPGQAPRRLIYDSSKLASGVPARFSGSGSGRDYTLTISSLEPEDFAVYYCQQWSRNPPTFGGGTKVEIK
B14 yielded an EC50 in experiment [1] of 12.1 nM. In experiment [2], the “% Retained 55° C.” value stood at 98.9%, the “% Retained 60° C.” value stood at 97% and the “% Retained 65° C.” value is 33.3%.

B15: CD3B2051 N106S (scFv)
scFv: QVQLVQSGAEVKKPGSSVKVSCKASGYTFTRSTMHWVKQAPGQGLEWMGYINPSSAYTNYNQKFQGRVTLTADKSTSTAYMELSSLRSEDTAVYYCASPQVHYDYSGFPYWGQGTLVTVSSGGSEGKSSGSGSESKSTGGSEIVLTQSPATLSASPGERVTLSCSASSSVSYMNWYQQKPGQAPRRLIYDSSKLASGVPARFSGSGSGRDYTLTISSLEPEDFAVYYCQQWSRNPPTFGGGTKVEIK
Consider B15, for which the 50% effective concentration (EC50) in experiment [1] turned out to be 11.1 nM. In addition, in experiment [2], the “% Retained 55° C.” value is 101%, the “% Retained 60° C.” value stood at 70.9% and the “% Retained 65° C.” value was 1.5%.

B16: CD3B2051 N106H (scFv)
scFv: QVQLVQSGAEVKKPGSSVKVSCKASGYTFTRSTMHWVKQAPGQGLEWMGYINPSSAYTNYNQKFQGRVTLTADKSTSTAYMELSSLRSEDTAVYYCASPQVHYDYHGFPYWGQGTLVTVSSGGSEGKSSGSGSESKSTGGSEIVLTQSPATLSASPGERVTLSCSASSSVSYMNWYQQKPGQAPRRLIYDSSKLASGVPARFSGSGSGRDYTLTISSLEPEDFAVYYCQQWSRNPPTFGGGTKVEIK
Turning to B16, in experiment [1], the EC50 is 10.9 nM. Moreover, in experiment [2], the “% Retained 55° C.” value came to 103%, the “% Retained 60° C.” value worked out at 84.2% and the “% Retained 65° C.” value was 9%.
